Data reported in the DeepSol protein solubility set.

assay: soluble on expression in E. coli; label from the status in PepcDB or PDB records

| Sequence | soluble on expression in E. coli |
| --- | --- |
| MGSDKIHHHHHHMNILITGASGFIGRQLVERLAPHHQLTLLTRSVQQTQRILGNQHHYLESLDALSDLNHIDAIVNLAGEPIVAKRWSKNQKQRICDSRWDITARLTQLIQQSSNPPEIMVSGSAVGYYGRHDDKLLDESSGAHVEFSHDICRKWEQEALNANTEHTRVCIIRIGIVLGKGGALEKMLPPFKLGLGGPIGHGRQGMSWIHVQDLISLIDFLLSQEHCKGVFNATAPNPVSNAVFTKALGKALNRPALITTPPLALRLAMGEMSELLTEGQFVYPKRALEAGFQFQFSDLDNALTDVLAK | not soluble |
| MGSDKIHHHHHHMNKHFTFTINSICLDENYHPSDKTRITTNFANLARGSHRQANLRNALKMIDNSFNALAHWDNPKGDRYSVELEIISVNLDIDGSGQTFPSIEVLKTNIVDHKTNKRIEGIVGNNFSSYVRDYDFSVLLAEHNKGQAKFSIPDDFGGLHGKLFQSFVNSDAYKQNFNKPPVICLSVSDNKTYHRIENQHPVLGVEYQPNESSLTEQYFKKMGLQVRYFMPPNSVAPLAFYFFGDLLNDYTHLELISTISTMGTFQKIYRPEIYNANAVAGKCYQPNLKNLDHSLTQIVYDRAERSQLANEQGKFAAEHFIKPYQTFFEQWPANYL | not soluble |
| MGSDKIHHHHHHMNKIINNILNTCKQYTYILPHKLLRQYIAHYTISIPDTSIKENLTLIPDASGCMIFKFDKKGIESAFWGATTKTTIVKNDIENVLFRVFVEFRPGGVYYLTGLSQRESTDLKISLEDFNTLFSLEVNSIFERTSTIKELVEQLDMLFLSYLLKSNIVDMTIPILENARKQNSIMSVKNISQISCYSERHLNRIFNNSLGMSVKSYLRLLRINLVLQEIQNNKIPFATLAQDIGYYDQSHFINDFKSICGVNPTTYIKNLSDFYNEKYKF | not soluble |
| MGSDKIHHHHHHMNKQEITSKIKEITETGAVCGVDVYVCLKGEEQGFYIEKMISMNSLKDRIRSIALEIINTQYLQDEVVYCDILDVIDNKKAVYVLEQSDEYKPFALLNDDSMDEVFNFDEKDIGNVLGFLFKINLNSKKLFIYQQAYVGSRLQAKNNLRIIQKDNVFEIVDKEMLKIDKRGELLILDNTILVRNVKVLQDFFGFQVFVRNQAQSVISKLEELDIIGNIATLKEYQTGEKLTISKKLMKVKNSPVLAMDKDELINKIPLVPRYKNIIHIENGKIRTNTKKDVDNLMKLLNDDYVKSELTDMEYDSTSKTLLNSESQDE | not soluble |
| MGSDKIHHHHHHMNKRNLLIAIPALCSGYLHGQTQPASPNVIYILMDDLGYGDIGCFGQDKIETPHIDRLCSEGIKLTQHYSGSPVSAPARCVLMTGMHSGHAQIRFNNELAERGAVNNYDSVYVHKELEGQFPLQANTMTIGRMMQQAGYTTGCFGKWGLGYPGSEGTPNKQGFDRFYGYNCQRQSHTYYPPFLYNDEERVYLSNKVTDPHRSPLDKGADPNDPASYAKYTQKEYANDLIFDELMGFVDANKRKPFFLMWTTPLPHVSLQAPERWVQHYVKKFGDEKPYTGQAGYLPCRYPHATYAAMISYFDEQIGQLIEKLKAEHLYENTLIVFTSDNGPTFNGGSDSPWFNSGGLFNSAYGWGKCFLHEGGIRVPAIITWPGKIKPGTQSDHICAFQDVMPTLAELAGITCPPTDGISFLPTLLGKKGKQKEHTYLYWEYPDPRIGNKAIRMGKWKGIITDIRKGNTQMQLYNLETDIREEHDVAAQHPDIVKRFERLMKEARNGPDF | not soluble |
| MGSDKIHHHHHHMNLAGAQLTENELMRLTVSNIAQATSLPALIQEHGRWCCQRCGDRKPVQLPDGRFYCSACVSLGCLTNRDLLYRFEQPHRPVGDGLLTWHGTLTPAQQKASTALQTSVTAGADHLIWAVTGAGKTEMLFPTISQMVQQGKRVAIVSPRIDVIRELAPRLRTAFATTPIAVRYGGHFDQTDSDLVLATVHQLLRFHRAFDLIVVDEVDAFPMAGTPMLHRAVQGARRGPVVYLTATPDRPLKAAMRKGLMVSRLFRRFHGHPLPVPAIRLMNFKKLPSQLPPAIVKWVRDVVATGRSCLLFVPKISWAPQIAALVQRNGLRVAGVASTDRLRAEKITAFRQRQIQVLVTTTILERGVTVSKCAVGVVAAADRAFTASALVQIAGRAGRAADSADDPVVFFTDRYTLALLAAKRQIVMMNGR | not soluble |
| MGSDKIHHHHHHMNLEEENTIFKPLYSLKHSPINAYFSKNSDDFVVRERPLYEFSGKGEHLILHINKKDLTTNEALKILSEASGVKIRDFGYAGLKDKQGSTFQYLSMPKKFESFLSNFSHPKLKILEIFTHENKLRIGHLKGNSFFIRLKKVLPSDALKLEQALMNLDKQGFANYFGYQRFGKFGDNYKEGLEILRGKKMKNVKMKEFLISAFQSELFNRYLSKRVELSHFANDFSEKELIQIYKISKEEAKELKKQEQFFKLLKGEVLGHYPFGKCFLCEDLSAELGRFKARDISAMGLLIGAKAYETGEGLALNLENEIFKDTLEFKAKMQGSRRFMWGYLEELKWRYDEEKAHFCIEFFLQKGSYATVVLEEILHKNLFE | not soluble |
| MGSDKIHHHHHHMNLKKVVNEIRNFEGILRKIAIKDVVETFDFNDEDYEFDIIVDFGDDAAVIGIDGDNAILLAADGIWGKLLEADPWWAGYCSVLVNCKDIAAMGGKCVGMTNIISIKDKDICREVLKGVKDGVKKFGVPMVGGHTHPDAMCNVLDVSITGIAKKDCILRSDNAKIGDKIIFAYDLVGQIYKSFPLNWDTTTMKSKKLVRAQMDALVQIAENKLANSCKDISNPGAIGTLGMLLEVSRKGGVVDITKIPKPEEIDLIHWLKVYPGSGYVLTAKEENFKEIKDIFEDVEMTAEICGEVIAEKKLYITDGENKEVVFDFEKEFICGC | not soluble |
| MGSDKIHHHHHHMNLKQITYFLAVAEAGQMTAAAKQLHMAQPPLSYQLKALEDELGVRLFERGSRGVRLTGSGQQFMTYAQQIVETVAAAENAARRSGEGEIGTLALGLTSSAGDVLPKQKLQAFNRRYPQVEFALYEDNTYGILDKLRRNILDLAIVRTPFNDDGLASCRLSSDHMIAVAAASQPLPATLTIPDLKQQPLIVYRRFSSLFKTTFAEYGITPIIAVLCDDARTALHWAQMGMGVALVPATMAALASQQSHLAVIDYEPWVTHMTLVWQPEALHNPLVARFVGQLSGGESEKYSK | not soluble |
| MGSDKIHHHHHHMNLLSPSDPIVLSTAYLPPIQYFTKLLHPEGVLLETAENFVKQSYRNRCHIAGPEGMQPLTIPVEKSPSPKAPIRDIRISEHGNWRHLHLNALISSYGSAPFFDHYMTEIEPFYRHKYTFLWDFNLDLLSVCLEWLDISPLIMFTFEYVEDCPNDFRYSIRPKQAPEDESFRPRVYYRTFAHKYGFLPNLSIVDLIFHEGPSAIQTLKECIR | not soluble |
| MGSDKIHHHHHHMNLPTAHPLIDEATLTIVVCHILDSKTATLGEWHSEAIAHHIINNVTAGLQRITGIANNGSEQLSWSVILKILHLQPENAGSIFNSSQDPTHWNYWQREALIYTSGMLDNLTGDLVAPRCFGITEPSANVVWLWLEDIQGSSGSTWTMERFGLAARHLGYLQGSYVMAQSLPYEPWLSRGWHRAWVSNIDNTALEAWREPAVWQHPLLKEIFSPDIGDRVMDLWSDRHILLDAVDKAPHTLCHFDITPNNLFSRHNPDGNDQTVLIDWSFVGYGVLGEDIINLVLDSVFLLFVNGSSLIPLEKLVLEGYLTGLRSAGWNGDERIVRFTYAALAALHFGLIAGRLLKLVQNESRHSWLEQRFGRTFDEIITSRAIAITHGLELADEARLLLPSLFVIN | not soluble |
| MGSDKIHHHHHHMNLQQLAVFREVMETGSVSAAARNLGRTQPAVSASLKALEVNLGIALFEREGRRLVPVPEAHYLLSEAAEILARVNTTEMNLVGMRNRTRGSLSVVGMPGPSVYLLPDFVSRFGSKADDLKISLSTRSSPQILNLIAAQAFDVGFCDLGFCDMSAEDLNSSLYHTKTIMSDCLCALPAQHPLAGRAVIDARQLSGERMGVLAGTHSTNRDTRAAFEQAGAVFNPRVEAQYFIPLLRFVEAGQICTVLDPLSAETYKRMNGGEVGIWFARFLPSVRFGYSIVTPKQRPLSLLAQDFVDGWSDHVREIIADHS | not soluble |
| MGSDKIHHHHHHMNLRGKMIVIKFGGSSLRSEFKSAVSLIKALSEEKDVVVVVSALKGITDLLEKYTDTFDSRYAVEVSKTYLEFGKRMGIDTSSLSPYLKQLFNPPDLPPQALRDYILSIGELLSAAMIAEKANGAVIFPWDLFVAHGSFGNGFIDIKKSKRNVKLVKEALESGKIPIIPGFIANLNGYRVTLGRGGSDYSAVALGVLLNSELVAIMSDVEGIFTADPKMIPYSLLIPYMSYDEILIASKYGMEAIQWKAAKLAKEYEALILFGRASDWRMGTVVSNSSSHMPLLSYDQGKLLVMNMDSEIPYEVVEEGEFWRVYRVPKRDSIKIIKELHRKIIYQENAQLLGRVKA | not soluble |
| MGSDKIHHHHHHMNNKGKLAILFIDALPYFKSRNIGQILNLYRLIPGLGYSVNQHYELLYGKTPDDVGFFGEWSLGCSTKFDTIKFRFHKTIDSILWKLKLNLIRKGYRKIILRLEDMIPLGRRKYFLRKGTYAFRELAKEGFILYNTQFRGYIEELDRTLPRNEEKRMETMFNKMFNIAKNTDHPLLFTINIIDHIGHKYGPESPEYDYFLDLFAKKLLDLLIFLKENGFHVILFSDHGMSPYKAKVNLSDFEHYFGKFFGKYIVYFYDSLYFRAWIFDSFLYLEIEEFLNKLPGKILSSNDRKKFGVVHEEHGHVIFVLNEGFTFHPNYFGYSVMKGYHGYLPEFERQHGIAAFSRAFKIDNLFQGNPPKYLNSIDFSRIIKHILEANRNV | not soluble |
| MGSDKIHHHHHHMNNLYPYGAPDSNLYARKQEEYDQQIAEAILAGIKREATAIELYRRLADEAPSEQHQHDIRQALENKQASLTQFTNAYRILTGQQPQLEVDDVSFYRFHEGLQKAYEIEVEGYEEYERSSALTENPHVQHAFWTALNTEYENTTRLYRSLHEEADHRVTDHGPRPFVVNIEDETKRNRAFRRALWTGDHLQVTLMSIQVGEDIGLEIHPHLDQFLRVEEGRGLVQMGHRQDNLHFQEEVFDDYAILIPAGTWHNVRNTGNRPLKLYSIYAPPQHPHGTVHETKAIAMAAEEHHHL | not soluble |
| MGSDKIHHHHHHMNPADNILWGNIIKVHGVKGEVLVQVFSDDLTDYETLESVFVEIKQKQIPFFLSTFNFATQKRCILSFEDVTTVEQAKPLVGADIYIPVSKMAEADESRLSYQAIIGFEVMDTIQGKLGVISNFFQKTGQDLLMMDYQDAEILIPVTEEIVHSVDVKTKQVITTLPEGLIEIYLNEDASEPDAD | not soluble |
| MGSDKIHHHHHHMNPNTVPPAARDVAWIKHALQTAIELEYSTLPLYLSAMFSLEVQNYTAYNAIRSIAMEEMVHMAIAANLLAALGGSPQFKPIQIAYPTTGLPGGAEPDLHVGLARYSKPQLKNFLRIETPGFLLRQLGRDEGYPTIAAFYESIRSAIARNANAVRAAVQAGGPANQVGDDIGFTTVTYKPGVDPVESFDAGIGEILQQGEGSGRGDVFAGNPFEDEESHYARFAELYYGARYQAPSPPVDFNPKNEPLFFGGPAIAAPVVVNTLAVPRDGYARILALDPERDTVESDLNAFDSGFSKILSTLDAVWNGPSSTSWKTLGAAVHGMVDLRVLSCFNIMRHAVPAAAVSQLAELYPDEIGFLRTYTDLSKPVFYGPRFVNVNGKQAS | not soluble |
| MGSDKIHHHHHHMNQDRNKLLSKIAYLYYIENLNQSQIAAKLGIYRTSISRMLTEARNVGIVKIEIENFDTNMFKLENYVKEKYSLESLEIIPNEFDDTPTILSERISQVAAGVLRNLIDDNMKIGFSWGKSLSNLVDLIHSKSVRNVHFYPLAGGPSHIHAKYHVNTLIYEMSRKFHGECTFMNATIVQENKLLADGILQSRYFENLKNSWKDLDIAVVGIGDFSNKGKHQWLDMLTEDDFKELTKVKTVGEICCRFFDSKGKEVYENLQERTIAISLEDLKNIPQSLAVAYGDTKVSSILSVLRANLVNHLITDKNTILKVLEEDGDLTFREILGE | not soluble |
